From PMC11701102, “Structural insights into the interplay between microtubule polymerases, γ-tubulin complexes and their receptors” (Nature Communications, 2025)
Changes are numbered by the printed parent chain. Names and notes keep the numbering of the source.

Legend:
[1] = target: MBP-Spc72^231-268 (C. albicans) (UniProt Q5AGV5); assay: SEC; MBP-CM1 constructs at 100 µM
[2] = target: the molecule itself; assay: cryo-EM structure; γ-TuSC/Spc72^1-599/FLAG-Stu2 complex purified via FLAG-Stu2; single particle analysis, γ-TuSC unit within oligomers at 3.6 Å, 14-spoked ring at 8.2 Å
[3] = target: T1, γ-tubulin small complex (γ-TuSC) from C. albicans: His-Spc97, His-Spc98, γ-tubulin (Tub4) (C. albicans, UniProt Q59PZ2 1-871; A0A1D8PS42 1-785; O93807 1-502); assay: SEC; FLAG-purified γ-TuSC/His-Spc72^1-599/FLAG-Stu2 on Superose 6 Increase 10/300 in HB100 buffer (40 mM K-HEPES pH 7.4, 100 mM KCl); fractions by SDS-PAGE, Western blot and gel densitometry; ring-like oligomers also seen by negative stain EM; conditions: both partners purified
T1 construct: Spc97 (homologue of human GCP2), C. albicans; Spc98 (homologue of human GCP3), C. albicans; γ-tubulin (Tub4), C. albicans; For MST the purified γ-TuSC was labelled with an amine-reactive dye (GREEN-NHS kit); also called γ-TuSC unit; γ-TuRC (as ring of seven γ-TuSCs); source: Sf21 insect cells (baculovirus); copies: 1 + 1 + 2

[4] = target: T2, FLAG-Stu2 (C. albicans, full length) (C. albicans, UniProt A0A1D8PTZ8 1-924); assay: pull-down; FLAG-Stu2 variants from insect cell lysate on anti-FLAG M2 gel, washed, then 20 µg purified Spc72 fragments from E. coli added for 1 h; 200 mM NaCl; eluted with 3xFLAG peptide, Western blot; also called IP or co-IP; conditions: both partners purified
T2 construct: Stu2, C. albicans, full-length Met1 to Glu924; FLAG tag followed by an HRV 3C cleavage site at the 5' end; also called wild-type FLAG-Stu2; source: Sf21 insect cells; not shown: FLAG, N-terminal, kept
T2 sequence (looked up): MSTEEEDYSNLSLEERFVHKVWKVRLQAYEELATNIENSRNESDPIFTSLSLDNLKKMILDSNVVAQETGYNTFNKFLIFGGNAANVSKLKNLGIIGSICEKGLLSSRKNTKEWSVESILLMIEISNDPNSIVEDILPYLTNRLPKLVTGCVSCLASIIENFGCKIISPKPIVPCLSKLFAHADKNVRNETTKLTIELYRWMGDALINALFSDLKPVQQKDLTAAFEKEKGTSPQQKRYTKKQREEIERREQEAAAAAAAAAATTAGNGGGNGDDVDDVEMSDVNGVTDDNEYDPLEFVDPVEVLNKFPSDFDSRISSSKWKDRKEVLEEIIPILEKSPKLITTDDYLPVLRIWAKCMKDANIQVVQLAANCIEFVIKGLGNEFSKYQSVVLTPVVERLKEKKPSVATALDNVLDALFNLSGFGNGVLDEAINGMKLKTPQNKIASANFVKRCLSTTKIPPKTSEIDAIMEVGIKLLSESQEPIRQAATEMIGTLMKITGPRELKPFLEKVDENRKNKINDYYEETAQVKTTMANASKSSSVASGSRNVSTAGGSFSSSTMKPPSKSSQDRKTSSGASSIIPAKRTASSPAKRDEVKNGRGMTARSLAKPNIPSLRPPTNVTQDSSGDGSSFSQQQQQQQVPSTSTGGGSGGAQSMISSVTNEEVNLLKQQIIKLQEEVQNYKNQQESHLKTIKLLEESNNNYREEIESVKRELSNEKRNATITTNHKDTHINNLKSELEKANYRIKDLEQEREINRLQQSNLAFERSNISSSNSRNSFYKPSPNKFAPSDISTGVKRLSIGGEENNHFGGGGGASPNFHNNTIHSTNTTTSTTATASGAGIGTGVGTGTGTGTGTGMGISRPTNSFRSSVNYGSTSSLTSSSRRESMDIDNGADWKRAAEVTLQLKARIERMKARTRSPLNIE

[5] = target: T3, FLAG-Stu2^∆666-768 (coiled-coil deletion mutant) (C. albicans, UniProt A0A1D8PTZ8 1-924, ∆666-768); assay: as above; conditions: both partners purified
T3 construct: Stu2, C. albicans (Met1 to Glu924), coiled-coil region 666-768 deleted
T3 sequence: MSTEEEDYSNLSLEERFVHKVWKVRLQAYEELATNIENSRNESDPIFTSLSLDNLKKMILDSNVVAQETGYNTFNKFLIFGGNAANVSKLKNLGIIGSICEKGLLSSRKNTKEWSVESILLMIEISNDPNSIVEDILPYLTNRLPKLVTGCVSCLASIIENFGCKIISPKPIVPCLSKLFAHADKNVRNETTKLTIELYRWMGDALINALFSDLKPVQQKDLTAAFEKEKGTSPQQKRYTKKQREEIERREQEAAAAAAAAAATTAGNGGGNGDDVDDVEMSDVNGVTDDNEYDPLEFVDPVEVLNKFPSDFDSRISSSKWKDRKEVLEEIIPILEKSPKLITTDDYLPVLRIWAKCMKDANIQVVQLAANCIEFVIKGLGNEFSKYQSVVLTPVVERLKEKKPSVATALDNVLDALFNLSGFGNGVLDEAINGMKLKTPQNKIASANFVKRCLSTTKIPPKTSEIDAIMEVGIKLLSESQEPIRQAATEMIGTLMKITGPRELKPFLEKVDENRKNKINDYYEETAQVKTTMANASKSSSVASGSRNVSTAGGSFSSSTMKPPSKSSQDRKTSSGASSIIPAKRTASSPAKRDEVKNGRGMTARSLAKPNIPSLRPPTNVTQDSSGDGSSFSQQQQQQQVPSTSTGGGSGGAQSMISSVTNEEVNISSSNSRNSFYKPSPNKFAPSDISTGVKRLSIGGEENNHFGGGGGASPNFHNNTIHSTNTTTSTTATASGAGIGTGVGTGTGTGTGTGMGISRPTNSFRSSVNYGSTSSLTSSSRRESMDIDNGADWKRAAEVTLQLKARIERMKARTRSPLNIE

[6] = target: T4, FLAG-tagged γ-TuSC (FLAG-Spc98, His-Spc97, γ-tubulin) (C. albicans, UniProt A0A1D8PS42 1-785; Q59PZ2 1-871; O93807 1-502); assay: pull-down; FLAG-γ-TuSC (FLAG-Spc98) from insect cell lysate on anti-FLAG M2 gel, washed, then 20 µg purified His-Spc72 added for 1 h; 150 mM NaCl; eluted with 3xFLAG peptide, Western blot; called co-IP in the text; conditions: both partners purified
T4 construct: Spc98, C. albicans; Spc97, C. albicans; γ-tubulin (Tub4), C. albicans; also called FLAG-γ-TuSC; copies: + +

[7] = target: the molecule itself; assay: SEC-MALS + other: mass photometry; FLAG-Stu2 (10 µM) and His-Spc72^291-599 (60 µM) alone or mixed 1:1 (vol), Superdex 200 Increase 5/150, 50 mM Tris-HCl pH 7.5, 150 mM NaCl, room temperature; mass photometry below 40 nM
[8] = target: γ-tubulin small complex (γ-TuSC) from C. albicans: His-Spc97, His-Spc98, γ-tubulin (Tub4) (C. albicans, UniProt Q59PZ2 1-871; A0A1D8PS42 1-785; O93807 1-502); assay: MST
[9] = target: GST-CM1^231-268 (GST-Spc72^231-268) (C. albicans) (UniProt Q5AGV5); assay: mass photometry; MBP-CM1 and GST-CM1 constructs diluted to below 40 nM in SEC buffer; for the GST constructs: GST-mediated dimers to tetramers

Molecule: MBP-Spc72^231-268 (from UniProt Q5AGV5 231-268) (domain or fragment)
- stoichiometry N [1]: 2

B1: His-Spc72^1-599 (C. albicans), co-expressed in insect cells (domain or fragment, UniProt Q5AGV5 1-599, looked up)
chain: MSNLSINESNDNSNVSILSNKSGAQSSTNSSPNLIVFKQPEDLSIQLQQQQQGTQEDTPEEEEEEEEEMEQITQLEVQQENQPDTLSSSPFISRPNSPLDDIIRPQGTSSPSLTIRDSYSSQVDINISNLHKSLNEMRLSTDPVDNNNNNNKVNKNNPTNSDISNDDIITIDNLTPSRIQPKNISPWRQFRPTLRGSPESTPRSLFQNKPNLKFNNGLSPTNGSRDMVTNNIATTTKSREEELNKRIVNYKIQLKLMKNFLQELIDRNNLDPHEFHTLLRRNNNNIMNNENNPLSTSLSQTSTLEIQHQNLQIELDEALELNKQLYNKIETANKEISDKDLQISNYESRINLINYSVDELIYILINEYDKNNYSHGGSNTTSPGKETLQQSISAQLEVKLNVLKLELMTRLDQSHQYNNKPHDLFTPPYTSSEYGVSTNNVANKNDLEGYIHIIEDLIKTVDELELTCENYKANKNELQNQLVEQINESIRIKNNFQIMSNKFNQLRQSLSEKENDKNLDEFSKNNHQQQQQQQIQQLEQKLIEYEKCITILQDELDQYKQPSDTTNTTNNNNNNNNNNNRSSYSSYNNHRNSSLNELN
notes: Only the CM1 motif is resolved in the cryo-EM map, as a parallel dimeric coiled coil; source: Sf21 insect cells, MultiBac co-expression with γ-TuSC components and FLAG-Stu2 or His-GFP-Mzt1
- stoichiometry N [2]: 2
- stoichiometry N [3]: ~2 Spc72^1-599 per γ-TuSC (Spc97:Spc98:γ-tubulin:Spc72^1-599)

B2: His-Spc72^1-599 (C. albicans), from E. coli (domain or fragment, UniProt Q5AGV5 1-599, looked up)
chain: B1 chain
notes: source: E. coli BL21 CodonPlus-RIL, purified (Ni-TED); not shown: His6, N-terminal, kept
- binding result [4]: binds
- binding result [5]: binds

B3: His-Spc72^1-599,3R (L243R/I247R/L254R), from E. coli (domain or fragment)
chain: B1 chain with L243R, I247R, L254R
notes: The cloning of the E. coli construct of this mutant is not described; also called Spc72^3R mutant; source: E. coli BL21 CodonPlus-RIL, purified (Ni-TED)
- fold lower binding efficiency compared to Spc72^1-599 [6]: 1.7 fold

B4: His-GFP-Spc72^430-480 (domain or fragment, C. albicans, UniProt Q5AGV5 430-480, looked up)
chain: TSSEYGVSTNNVANKNDLEGYIHIIEDLIKTVDELELTCENYKANKNELQN
notes: Spc72, C. albicans, codons 430-480; source: E. coli BL21 CodonPlus-RIL; not shown: GFP, N-terminal, kept
- binding result [4]: binds

B5: His-Spc72^291-599 (domain or fragment, C. albicans, UniProt Q5AGV5 291-599, looked up)
chain: NNPLSTSLSQTSTLEIQHQNLQIELDEALELNKQLYNKIETANKEISDKDLQISNYESRINLINYSVDELIYILINEYDKNNYSHGGSNTTSPGKETLQQSISAQLEVKLNVLKLELMTRLDQSHQYNNKPHDLFTPPYTSSEYGVSTNNVANKNDLEGYIHIIEDLIKTVDELELTCENYKANKNELQNQLVEQINESIRIKNNFQIMSNKFNQLRQSLSEKENDKNLDEFSKNNHQQQQQQQIQQLEQKLIEYEKCITILQDELDQYKQPSDTTNTTNNNNNNNNNNNRSSYSSYNNHRNSSLNELN
notes: source: E. coli, purified (Ni-TED for pull-downs; Ni-NTA and SEC for HX-MS, SEC-MALS and mass photometry); not shown: His6, N-terminal, kept
- stoichiometry N [7]: 2

B6: His-GFP-Spc72^300-350 (domain or fragment, C. albicans, UniProt Q5AGV5 300-350, looked up)
chain: QTSTLEIQHQNLQIELDEALELNKQLYNKIETANKEISDKDLQISNYESRI
notes: Spc72, C. albicans, codons 300-350; source: E. coli BL21 CodonPlus-RIL; not shown: GFP, N-terminal, kept
- binding result [4]: binds

B7: His-GFP-Spc72^429-599 (domain or fragment, C. albicans, UniProt Q5AGV5 429-599, looked up)
chain: YTSSEYGVSTNNVANKNDLEGYIHIIEDLIKTVDELELTCENYKANKNELQNQLVEQINESIRIKNNFQIMSNKFNQLRQSLSEKENDKNLDEFSKNNHQQQQQQQIQQLEQKLIEYEKCITILQDELDQYKQPSDTTNTTNNNNNNNNNNNRSSYSSYNNHRNSSLNELN
notes: also called second coiled-coil module; source: E. coli BL21 CodonPlus-RIL, purified (Ni-TED); not shown: GFP, N-terminal, kept
- binding result [4]: binds

Molecule: NIATTTKSREEELNKRIVNYKIQLKLMKNFLQELIDRN (domain or fragment) [GST-CM1^231-268 (GST-Spc72^231-268)]
- Kd [8]: 105 nM
- stoichiometry N [9]: 4

B8: γ-tubulin (Tub4), C. albicans (natural protein, UniProt O93807 1-502, looked up)
chain: MPGETITLQVGQCGNQVGLQYWQQLATEHGIQSDGSSTPYPKDINDLQLQELNNSGSSPQSYPQQTKPNGKYRNDHPELFFTLSDSNTYTPRSILIDMEPSVIAKSTSALPMFNPRNVHLSNQGNGAANNWINGYKYGTEEEETLLNLIDREVDKCDNLSNFQLFHSVAGGTGSGVGSKMLEVISDRYGHKKLLNTFSIFPSNEDTSDVVVQPYNTILTLKRLIDYSDATFVFHNDSLNRIENILFNNNSNIQHDDNDLFLGANKLIALVSASVSNPLRFPGYMYSSMESIVSNLIPTPDLKFLTSSIAPFSTQKHNYLNEYDMLLELSNDRYKTNRVGGDTSYISMLNYLIGYNLDQREIRKGILKSQQRISFVPWVARSVLVVHGKKSPYLKNTNLEGIQVTNNTSMIDVFTKILKQFDLLIKRKAYLNRYYSSVEEENEVMEMFNESRESVKSIIDEYKACKEITYLDDDDEDDLEDGDGGGGGNGNGYNNIDDADMGI
notes: γ-tubulin (Tub4), C. albicans; Subunit of m1, written alone for the contacts in the cryo-EM structure
- binding result [2]: binds
